What was measured:
[1] = target: human iNOS oxygenase domain, recombinant (human); assay: ITC
[2] = target: human iNOS oxygenase domain, recombinant (human); assay: SPR

Chain of human iNOS oxygenase domain, recombinant (human) (P35228 whole entry, the tested form may be a part): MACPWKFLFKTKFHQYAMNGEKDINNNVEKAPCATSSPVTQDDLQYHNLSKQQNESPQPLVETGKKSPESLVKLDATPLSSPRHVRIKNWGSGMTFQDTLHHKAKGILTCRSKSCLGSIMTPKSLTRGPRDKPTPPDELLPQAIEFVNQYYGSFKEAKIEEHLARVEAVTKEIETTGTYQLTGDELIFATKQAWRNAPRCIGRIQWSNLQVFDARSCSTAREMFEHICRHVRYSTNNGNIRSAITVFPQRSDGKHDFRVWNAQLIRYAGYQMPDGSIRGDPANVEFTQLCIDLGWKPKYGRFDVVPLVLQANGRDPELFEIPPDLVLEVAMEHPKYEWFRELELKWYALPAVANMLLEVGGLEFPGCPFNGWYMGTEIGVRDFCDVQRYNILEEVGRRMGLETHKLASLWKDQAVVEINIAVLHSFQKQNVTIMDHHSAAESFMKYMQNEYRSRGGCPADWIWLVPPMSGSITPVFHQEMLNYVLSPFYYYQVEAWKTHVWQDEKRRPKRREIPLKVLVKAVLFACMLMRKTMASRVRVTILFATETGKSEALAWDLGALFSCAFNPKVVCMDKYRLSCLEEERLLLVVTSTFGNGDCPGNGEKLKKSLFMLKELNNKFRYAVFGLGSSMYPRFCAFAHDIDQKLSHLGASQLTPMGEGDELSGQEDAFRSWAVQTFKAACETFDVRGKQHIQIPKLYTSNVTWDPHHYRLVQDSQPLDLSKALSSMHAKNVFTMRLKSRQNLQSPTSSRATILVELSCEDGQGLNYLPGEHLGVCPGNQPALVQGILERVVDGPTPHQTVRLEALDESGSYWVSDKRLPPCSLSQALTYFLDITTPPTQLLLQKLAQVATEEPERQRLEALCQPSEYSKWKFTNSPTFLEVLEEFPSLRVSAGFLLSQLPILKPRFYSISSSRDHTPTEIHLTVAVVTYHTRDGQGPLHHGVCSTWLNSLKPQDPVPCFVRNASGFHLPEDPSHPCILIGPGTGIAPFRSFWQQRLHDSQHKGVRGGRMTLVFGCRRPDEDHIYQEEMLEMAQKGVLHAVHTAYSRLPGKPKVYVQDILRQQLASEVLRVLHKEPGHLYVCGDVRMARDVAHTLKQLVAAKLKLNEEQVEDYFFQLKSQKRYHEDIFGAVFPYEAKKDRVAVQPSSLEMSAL

B1: Nitric oxide synthase interacting protein (NOSIP), full length, recombinant (natural protein)
chain: MTRHGKNCTAGAVYTYHEKKKDTAASGYGTQNIRLSRDAVKDFDCCCLSLQPCHDPVVTPDGYLYEREAILEYILHQKKEIARQMKAYEKQRGTRREEQKELQRAASQDHVRGFLEKESAIVSRPLNPFTAKALSGTSPDDVQPGPSVGPPSKDKDKVLPSFWIPSLTPEAKATKLEKPSRTVTCPMSGKPLRMSDLTPVHFTPLDSSVDRVGLITRSERYVCAVTRDSLSNATPCAVLRPSGAVVTLECVEKLIRKDMVDPVTGDKLTDRDIIVLQRGGTGFAGSGVKLQAEKSRPVMQA
dH [1]: -38.2 kcal/mol | stoichiometry N [1]: 0.505 | Kd [2]: 7.11 nM

Source: doi:10.1101/038398
